Laboratory results reported in patent publication US9725518B2, “Antibodies that bind to Jagged 1” (Cancer Research Technology Limited, priority 2013, dated 2017).

What was measured:
[1] = Soluble aggregates of transiently expressed antibodies; format: physicochemical; conditions: Protein A purified antibody
Description: The protein yield of these antibodies, their levels of soluble aggregates and their binding affinity to the immunogen (J1-DE3) are illustrated in (Table 6).

[2] = biological target: T1, N1 binding to cell surface expressed hJ1 (Homo sapiens, UniProt P78504); assay: Notch binding blocking assay (FACS): N1 EGF11-13 beads staining human J1-expressing cells; set-up: key: +: Complete blocking; X: No blocking
T1 construct: cell expressed full length human J1 (hJ1; HEK293 transfectants); expressed in transfected cells; host or cells: HEK293
Method: To functionally identify mAbs with the capacity to disrupt the J1-N1 protein:protein interaction, hybridoma culture supernatants were tested in a FACS-based binding assay. Biotinylated soluble human N1 EGF11-13 recombinant protein was bound to avidin-coated beads and used to stain J1-expressing cells in the presence or absence of each mAb that recognised cell surface hJ1 by FACS. […] The four blocking antibodies of the invention were also able to block the binding of recombinant […] to a biotin-tagged J1 DSL-EGF3 recombinant protein in an ELISA assay (FIG. 1B). […] The four blocking mAbs of the invention were purified from serum-free culture supernatants and equal concentrations of purified antibodies were used to compare their activity in subsequent assays (unless hybridoma supernatant was specified). Sequence conservation across the DSL domain raised the possibility that the J1 mAbs may also be able to bind the Jagged 2 (J2) protein. Antibody binding specificity was initially tested by immunocytochemical labelling of cytospin samples of hJ1 and hJ2 transfectants (FIG. 2). All antibodies stained J1 transfectants but none stained the J2 transfected cells, and J2 expression in the same experiment was confirmed using a commercial anti-J2 antibody. The specificity of the purified mAbs was further investigated in mammalian cells transfected with hJ2, human Delta-like ligand 4 (hDLL4), or mJ1 (FIG. 3). Transfectants were FACS stained with 10 μg/ml of each of the four blocking mAbs.
To test the blocking efficiencies of the J1 mAbs, purified mAbs were titrated to determine the concentration required to block recombinant N1 binding to cell surface expressed hJ1. Beads coated with a bacterially-expressed N1 EGF11-13 protein were used to stain the hJ1-expressing cells in the presence of various concentrations of mAbs.
The FACS-based binding assay using biotinylated soluble human N1 EGF11-13 recombinant protein bound to avidin-coated fluorescent beads to stain J1-expressing cells was performed using a dilution series of each variant mAb to test their ability to block J1 binding to N1 by FACS (Table 7). […] Thus 12/16 J1-65D1 variants V1-12 and all J1-183D variants have the desired binding and blocking activity.
Human N1 EGF11-13 (411-526) was expressed in E. coli, refolded in vitro and labelled with purple fluorescent avidin-coated beads (Spherotech) as previously described. HEK293 cells transfected with human J1 or B16F10 cells transfected with mouse J1 were stained with N1 fluorescent beads in the presence of J1 antibody supernatants or purified antibody (murine, chimeric or humanised) diluted in HBBS/10% FCS. Cells were washed and re-suspended in staining buffer before being analysed with a FACSCalibur and data analysis with CellQuest. HEK293 cells transfected with human Jagged 2 and B16F10 cells transfected with human and mouse DLL4 were stained similarly to test blocking specificity.

[3] = final antibody concentration 2.0 μg/ml
[4] = final antibody concentration 1.0 μg/ml
[5] = final antibody concentration 0.2 μg/ml
[6] = final antibody concentration 0.4 μg/ml
[7] = final antibody concentration 0.6 μg/ml

T1 sequence (P78504 34-1218): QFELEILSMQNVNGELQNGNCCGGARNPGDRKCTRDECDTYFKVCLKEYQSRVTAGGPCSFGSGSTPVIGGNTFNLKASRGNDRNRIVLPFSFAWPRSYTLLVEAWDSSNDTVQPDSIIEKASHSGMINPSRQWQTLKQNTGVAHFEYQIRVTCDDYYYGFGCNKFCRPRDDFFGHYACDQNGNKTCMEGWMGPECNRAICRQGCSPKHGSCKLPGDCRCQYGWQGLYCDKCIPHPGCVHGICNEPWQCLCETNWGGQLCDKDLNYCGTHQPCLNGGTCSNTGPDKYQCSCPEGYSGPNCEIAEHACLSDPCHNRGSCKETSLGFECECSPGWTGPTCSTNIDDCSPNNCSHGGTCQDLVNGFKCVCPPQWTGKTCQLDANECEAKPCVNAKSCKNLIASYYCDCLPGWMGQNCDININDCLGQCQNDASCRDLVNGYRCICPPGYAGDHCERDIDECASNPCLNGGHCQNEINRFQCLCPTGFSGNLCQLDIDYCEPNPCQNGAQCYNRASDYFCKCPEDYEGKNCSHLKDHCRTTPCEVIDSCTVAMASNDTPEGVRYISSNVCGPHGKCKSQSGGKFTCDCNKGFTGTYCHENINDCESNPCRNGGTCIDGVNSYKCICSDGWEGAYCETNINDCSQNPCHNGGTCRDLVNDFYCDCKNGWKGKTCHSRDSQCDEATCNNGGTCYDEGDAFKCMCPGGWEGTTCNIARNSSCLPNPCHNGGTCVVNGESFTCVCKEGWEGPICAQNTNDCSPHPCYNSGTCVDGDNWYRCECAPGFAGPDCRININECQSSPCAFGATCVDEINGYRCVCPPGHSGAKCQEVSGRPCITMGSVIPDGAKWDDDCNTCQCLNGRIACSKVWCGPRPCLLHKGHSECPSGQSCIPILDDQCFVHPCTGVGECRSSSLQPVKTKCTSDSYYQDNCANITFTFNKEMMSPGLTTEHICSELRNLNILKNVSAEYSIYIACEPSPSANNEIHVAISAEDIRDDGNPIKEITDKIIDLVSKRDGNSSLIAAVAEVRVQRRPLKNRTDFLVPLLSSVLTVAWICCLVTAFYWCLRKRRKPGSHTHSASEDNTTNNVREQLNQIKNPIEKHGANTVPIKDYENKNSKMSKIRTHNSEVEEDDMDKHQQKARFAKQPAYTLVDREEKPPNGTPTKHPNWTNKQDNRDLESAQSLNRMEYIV

B1: J1-65D variant 13: humanised/de-immunised J1-65D: J1-65D_VL_4 + J1-65D_VH_1 (antibody, V domains shown)
VH: QVQLVQSGAELKKPGSSVKVSCKASGYTFTDYEMHWVRQAPGQGLEWMGAIQPGGGGTAYNQKFKGRVTLTADKSTSTAYMELSSLRSEDTAVYYCTRRGYDDYPFAYWGQGTLVTVSS
VL: DIQMTQSPSSLSASVGDRVTITCRASQGIHNYLAWYQQKPGKAPKLLIYNAKTLADAVPSRFSGSGSGTDYTLTISSLQPEDFATYYCQQFWSAPWTFGQGTKLEIK
% soluble aggregate [1]: 2.82%
Blocking of Notch1 binding to cell surface Jagged 1 [2, 3]: Partial

B2: J1-65D variant 15: humanised/de-immunised J1-65D: J1-65D_VL_4 + J1-65D_VH_3 (antibody, V domains shown)
VH: QVQLVQSGAEVKKPGSSVKVSCKASGYTFTDYEMHWVRQAPGQGLEWMGAIQPGGGGTAYAQKFQGRVTLTADKSTSTAYMELSSLRSEDTAVYYCTRRGYDDYPFAYWGQGTLVTVSS
VL: DIQMTQSPSSLSASVGDRVTITCRASQGIHNYLAWYQQKPGKAPKLLIYNAKTLADAVPSRFSGSGSGTDYTLTISSLQPEDFATYYCQQFWSAPWTFGQGTKLEIK
% soluble aggregate [1]: 5.29%
Blocking of Notch1 binding to cell surface Jagged 1 [2, 4]: X
Blocking of Notch1 binding to cell surface Jagged 1 [2, 3]: Partial

B3: J1-65D variant 14: humanised/de-immunised J1-65D: J1-65D_VL_4 + J1-65D_VH_2 (antibody, V domains shown)
VH: QVQLVQSGAELKKPGSSVKVSCKASGYTFTDYEMHWVRQAPGQGLEWMGAIQPGGGGTAYAQKFKGRVTLTADKSTSTAYMELSSLRSEDTAVYYCTRRGYDDYPFAYWGQGTLVTVSS
VL: DIQMTQSPSSLSASVGDRVTITCRASQGIHNYLAWYQQKPGKAPKLLIYNAKTLADAVPSRFSGSGSGTDYTLTISSLQPEDFATYYCQQFWSAPWTFGQGTKLEIK
% soluble aggregate [1]: 6.61%
Blocking of Notch1 binding to cell surface Jagged 1 [2, 4]: X
Blocking of Notch1 binding to cell surface Jagged 1 [2, 3]: Partial

B4: J1-65D variant 1: humanised/de-immunised J1-65D: J1-65D_VL_1 + J1-65D_VH_1 (antibody, V domains shown)
VH: QVQLVQSGAELKKPGSSVKVSCKASGYTFTDYEMHWVRQAPGQGLEWMGAIQPGGGGTAYNQKFKGRVTLTADKSTSTAYMELSSLRSEDTAVYYCTRRGYDDYPFAYWGQGTLVTVSSASTKGP
VL: DIQMTQSPSSLSASVGDRVTITCRASGNIHNYLAWYQQKPGKAPKLLIYNAKTLADDVPSRFSGSGSGTDYTLTISSLQPEDFATYYCQHFWSAPWTFGGGTKLEIKRT
% soluble aggregate [1]: 0%
Blocking of Notch1 binding to cell surface Jagged 1 [2, 5]: X
Blocking of Notch1 binding to cell surface Jagged 1 [2, 6]: + (Complete blocking)
Blocking of Notch1 binding to cell surface Jagged 1 [2, 7]: + (Complete blocking)
Blocking of Notch1 binding to cell surface Jagged 1 [2, 4]: + (Complete blocking)

B5: J1-65D variant 11: humanised/de-immunised J1-65D: J1-65D_VL_3 + J1-65D_VH_3 (antibody, V domains shown)
VH: QVQLVQSGAEVKKPGSSVKVSCKASGYTFTDYEMHWVRQAPGQGLEWMGAIQPGGGGTAYAQKFQGRVTLTADKSTSTAYMELSSLRSEDTAVYYCTRRGYDDYPFAYWGQGTLVTVSSASTKGP
VL: DIQMTQSPSSLSASVGDRVTITCRASGNIHNYLAWYQQKPGKAPKLLIYNAKTLADAVPSRFSGSGSGTDYTLTISSLQPEDFATYYCQHFWSAPWTFGQGTKLEIKRT
% soluble aggregate [1]: 1.00%
Blocking of Notch1 binding to cell surface Jagged 1 [2, 5]: X
Blocking of Notch1 binding to cell surface Jagged 1 [2, 6]: + (Complete blocking)
Blocking of Notch1 binding to cell surface Jagged 1 [2, 7]: + (Complete blocking)
Blocking of Notch1 binding to cell surface Jagged 1 [2, 4]: + (Complete blocking)

B6: J1-65D variant 2: humanised/de-immunised J1-65D: J1-65D_VL_1 + J1-65D_VH_2 (antibody, V domains shown)
VH: QVQLVQSGAELKKPGSSVKVSCKASGYTFTDYEMHWVRQAPGQGLEWMGAIQPGGGGTAYAQKFKGRVTLTADKSTSTAYMELSSLRSEDTAVYYCTRRGYDDYPFAYWGQGTLVTVSSASTKGP
VL: DIQMTQSPSSLSASVGDRVTITCRASGNIHNYLAWYQQKPGKAPKLLIYNAKTLADDVPSRFSGSGSGTDYTLTISSLQPEDFATYYCQHFWSAPWTFGGGTKLEIKRT
% soluble aggregate [1]: 0%
Blocking of Notch1 binding to cell surface Jagged 1 [2, 5]: X
Blocking of Notch1 binding to cell surface Jagged 1 [2, 6]: + (Complete blocking)
Blocking of Notch1 binding to cell surface Jagged 1 [2, 7]: + (Complete blocking)
Blocking of Notch1 binding to cell surface Jagged 1 [2, 4]: + (Complete blocking)

B7: J1-65D variant 7: humanised/de-immunised J1-65D: J1-65D_VL_2 + J1-65D_VH_3 (antibody, V domains shown)
VH: QVQLVQSGAEVKKPGSSVKVSCKASGYTFTDYEMHWVRQAPGQGLEWMGAIQPGGGGTAYAQKFQGRVTLTADKSTSTAYMELSSLRSEDTAVYYCTRRGYDDYPFAYWGQGTLVTVSSASTKGP
VL: DIQMTQSPSSLSASVGDRVTITCRASGNIHNYLAWYQQKPGKAPKLLIYNAKTLADAVPSRFSGSGSGTDYTLTISSLQPEDFATYYCQHFWSAPWTFGGGTKLEIKRT
% soluble aggregate [1]: 0%
Blocking of Notch1 binding to cell surface Jagged 1 [2, 5]: X
Blocking of Notch1 binding to cell surface Jagged 1 [2, 6]: + (Complete blocking)
Blocking of Notch1 binding to cell surface Jagged 1 [2, 7]: + (Complete blocking)
Blocking of Notch1 binding to cell surface Jagged 1 [2, 4]: + (Complete blocking)

B8: J1-65D variant 10: humanised/de-immunised J1-65D: J1-65D_VL_3 + J1-65D_VH_2 (antibody, V domains shown)
VH: QVQLVQSGAELKKPGSSVKVSCKASGYTFTDYEMHWVRQAPGQGLEWMGAIQPGGGGTAYAQKFKGRVTLTADKSTSTAYMELSSLRSEDTAVYYCTRRGYDDYPFAYWGQGTLVTVSSASTKGP
VL: DIQMTQSPSSLSASVGDRVTITCRASGNIHNYLAWYQQKPGKAPKLLIYNAKTLADAVPSRFSGSGSGTDYTLTISSLQPEDFATYYCQHFWSAPWTFGQGTKLEIKRT
% soluble aggregate [1]: 0.59%
Blocking of Notch1 binding to cell surface Jagged 1 [2, 5]: X
Blocking of Notch1 binding to cell surface Jagged 1 [2, 6]: + (Complete blocking)
Blocking of Notch1 binding to cell surface Jagged 1 [2, 7]: + (Complete blocking)
Blocking of Notch1 binding to cell surface Jagged 1 [2, 4]: + (Complete blocking)

B9: J1-65D variant 6: humanised/de-immunised J1-65D: J1-65D_VL_2 + J1-65D_VH_2 (antibody, V domains shown)
VH: QVQLVQSGAELKKPGSSVKVSCKASGYTFTDYEMHWVRQAPGQGLEWMGAIQPGGGGTAYAQKFKGRVTLTADKSTSTAYMELSSLRSEDTAVYYCTRRGYDDYPFAYWGQGTLVTVSSASTKGP
VL: DIQMTQSPSSLSASVGDRVTITCRASGNIHNYLAWYQQKPGKAPKLLIYNAKTLADAVPSRFSGSGSGTDYTLTISSLQPEDFATYYCQHFWSAPWTFGGGTKLEIKRT
% soluble aggregate [1]: 0%
Blocking of Notch1 binding to cell surface Jagged 1 [2, 5]: X
Blocking of Notch1 binding to cell surface Jagged 1 [2, 6]: + (Complete blocking)
Blocking of Notch1 binding to cell surface Jagged 1 [2, 7]: + (Complete blocking)
Blocking of Notch1 binding to cell surface Jagged 1 [2, 4]: + (Complete blocking)

B10: J1-65D variant 3: humanised/de-immunised J1-65D: J1-65D_VL_1 + J1-65D_VH_3 (antibody, V domains shown)
VH: QVQLVQSGAEVKKPGSSVKVSCKASGYTFTDYEMHWVRQAPGQGLEWMGAIQPGGGGTAYAQKFQGRVTLTADKSTSTAYMELSSLRSEDTAVYYCTRRGYDDYPFAYWGQGTLVTVSSASTKGP
VL: DIQMTQSPSSLSASVGDRVTITCRASGNIHNYLAWYQQKPGKAPKLLIYNAKTLADDVPSRFSGSGSGTDYTLTISSLQPEDFATYYCQHFWSAPWTFGGGTKLEIKRT
% soluble aggregate [1]: 1.67%
Blocking of Notch1 binding to cell surface Jagged 1 [2, 5]: X
Blocking of Notch1 binding to cell surface Jagged 1 [2, 6]: + (Complete blocking)
Blocking of Notch1 binding to cell surface Jagged 1 [2, 7]: + (Complete blocking)
Blocking of Notch1 binding to cell surface Jagged 1 [2, 4]: + (Complete blocking)
